Test [1] has as its target T1, RHOA-LgBiT-N (RhoA fused to LgBiT) (human (from the RefSeq entry NM_001664; …, UniProt P61586 1-193).
T1 construct: RhoA, RHOA gene (NM_001664); On which end of RhoA the LgBiT stands is not clear from the two names used; also called LgBit-RhoA-N; source: HEK293T, transfected, in cells
The experiment in a line: split reporter (BiFC, NanoBiT); NanoBiT in HEK293T cells co-transfected with SmBiT and LgBiT fusion plasmids (500 ng DNA in all, 24-well plate); 24 h after transfection medium replaced by OPTI-MEM, substrate added, signal read for 30 min; negative control: SmBiT-MAP3K1 plasmid alone. As to conditions: partners not purified.

In a further test the target is T2, RHOA-3×Flag (human (from the RefSeq entry NM_001664; …, UniProt P61586 1-193).
T2 construct: RhoA, RHOA gene (NM_001664) cloned into p3×Flag-CMV-14; also called RhoA-Flag; source: HEK293T, transfected, in lysate
T2 sequence (P61586 whole entry): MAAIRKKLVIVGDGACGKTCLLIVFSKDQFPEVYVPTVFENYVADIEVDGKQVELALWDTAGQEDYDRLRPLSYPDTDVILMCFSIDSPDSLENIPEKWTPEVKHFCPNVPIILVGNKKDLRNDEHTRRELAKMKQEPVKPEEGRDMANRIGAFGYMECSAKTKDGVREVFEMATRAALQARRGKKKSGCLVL
The test is described as follows: co-IP; HEK293T cells co-transfected with MAP3K1-3×HA and RHOA-3×Flag; 48 h after transfection lysed in modified RIPA buffer; anti-Flag or anti-HA magnetic beads overnight at 4°C; blot with anti-HA or anti-FLAG; ratio of Co-IP to IP band intensity. As to conditions: partners not purified.

These results are taken from article PMC8927045, “MAP3K1 Variant Causes Hyperactivation of Wnt4/β-Catenin/FOXL2 Signaling Contributing to 46,XY Disorders/Differences of Sex Development” (Frontiers in Genetics, 2022).

T1 sequence (P61586 whole entry, the tested form may be a part): as the sequence (P61586 whole entry) above

B1: MAP3K1^R186G-SmBiT-C (R186G variant of MAP3K1 fused to SmBiT) (enzyme, human, UniProt Q13233 1-1512, looked up)
chain: MAAAAGNRASSSGFPGARATSPEAGGGGGALKASSAPAAAAGLLREAGSGGRERADWRRRQLRKVRSVELDQLPEQPLFLAASPPASSTSPSPEPADAAGSGTGFQPVAVPPPHGAASRGGAHLTESVAAPDSGASSPAAAEPGEKRAPAAEPSPAAAPAGREMENKETLKGLHKMDDRPEERMIGEKLKATCMPAWKHEWLERRNRRGPVVVKPIPVKGDGSEMNHLAAESPGEVQASAASPASKGRRSPSPGNSPSGRTVKSESPGVRRKRVSPVPFQSGRITPPRRAPSPDGFSPYSPEETNRRVNKVMRARLYLLQQIGPNSFLIGGDSPDNKYRVFIGPQNCSCARGTFCIHLLFVMLRVFQLEPSDPMLWRKTLKNFEVESLFQKYHSRRSSRIKAPSRNTIQKFVSRMSNSHTLSSSSTSTSSSENSIKDEEEQMCPICLLGMLDEESLTVCEDGCRNKLHHHCMSIWAEECRRNREPLICPLCRSKWRSHDFYSHELSSPVDSPSSLRAAQQQTVQQQPLAGSRRNQESNFNLTHYGTQQIPPAYKDLAEPWIQVFGMELVGCLFSRNWNVREMALRRLSHDVSGALLLANGESTGNSGGSSGSSPSGGATSGSSQTSISGDVVEACCSVLSMVCADPVYKVYVAALKTLRAMLVYTPCHSLAERIKLQRLLQPVVDTILVKCADANSRTSQLSISTLLELCKGQAGELAVGREILKAGSIGIGGVDYVLNCILGNQTESNNWQELLGRLCLIDRLLLEFPAEFYPHIVSTDVSQAEPVEIRYKKLLSLLTFALQSIDNSHSMVGKLSRRIYLSSARMVTTVPHVFSKLLEMLSVSSSTHFTRMRRRLMAIADEVEIAEAIQLGVEDTLDGQQDSFLQASVPNNYLETTENSSPECTVHLEKTGKGLCATKLSASSEDISERLASISVGPSSSTTTTTTTTEQPKPMVQTKGRPHSQCLNSSPLSHHSQLMFPALSTPSSSTPSVPAGTATDVSKHRLQGFIPCRIPSASPQTQRKFSLQFHRNCPENKDSDKLSPVFTQSRPLPSSNIHRPKPSRPTPGNTSKQGDPSKNSMTLDLNSSSKCDDSFGCSSNSSNAVIPSDETVFTPVEEKCRLDVNTELNSSIEDLLEASMPSSDTTVTFKSEVAVLSPEKAENDDTYKDDVNHNQKCKEKMEAEEEEALAIAMAMSASQDALPIVPQLQVENGEDIIIIQQDTPETLPGHTKAKQPYREDTEWLKGQQIGLGAFSSCYQAQDVGTGTLMAVKQVTYVRNTSSEQEEVVEALREEIRMMSHLNHPNIIRMLGATCEKSNYNLFIEWMAGGSVAHLLSKYGAFKESVVINYTEQLLRGLSYLHENQIIHRDVKGANLLIDSTGQRLRIADFGAAARLASKGTGAGEFQGQLLGTIAFMAPEVLRGQQYGRSCDVWSVGCAIIEMACAKPPWNAEKHSNHLALIFKIASATTAPSIPSHLSPGLRDVALRCLELQPQDRPPSRELLKHPVFRTTW
notes: Same construct as m1 with the patient variant; The end of the SmBiT is not clear; also called MAP3K1-Mut; p.R186G variant; source: HEK293T, transfected, in cells
With B1, the “fold of the wild type's NanoBiT signal” value in test [1] was 3.19 ± 0.18 fold of wild type.

B2: MAP3K1^R186G-3×HA (enzyme, human, UniProt Q13233 1-1512, looked up)
chain: B1 chain
notes: human MAP3K1, full-length cDNA NM_005921.2 with the patients' variant c.556A>G, cloned into pcDNA3.1(+)-3×HA; Same construct as m7 with the patient variant; also called R186G variant; source: HEK293T, transfected, in lysate
As to B2, the “fold of the wild type's ratio of Co-IP to IP signal” value with RHOA-3×Flag was 2.57 times wild type.
